Biological target: HIS-PDZ1-2 protein (PSD-95 PDZ1-2 tandem) (human) (UniProt P78352)
Assay: fluorescence polarization, heterologous competition against AB143 probe

For Tat-NR2B9c (peptide), the Ki was 4.6 µM.
